IntAct's records for PubMed 22327218

Target: anm5_human PRMT5 (UniProt O14744)
Sequence (O14744 whole entry): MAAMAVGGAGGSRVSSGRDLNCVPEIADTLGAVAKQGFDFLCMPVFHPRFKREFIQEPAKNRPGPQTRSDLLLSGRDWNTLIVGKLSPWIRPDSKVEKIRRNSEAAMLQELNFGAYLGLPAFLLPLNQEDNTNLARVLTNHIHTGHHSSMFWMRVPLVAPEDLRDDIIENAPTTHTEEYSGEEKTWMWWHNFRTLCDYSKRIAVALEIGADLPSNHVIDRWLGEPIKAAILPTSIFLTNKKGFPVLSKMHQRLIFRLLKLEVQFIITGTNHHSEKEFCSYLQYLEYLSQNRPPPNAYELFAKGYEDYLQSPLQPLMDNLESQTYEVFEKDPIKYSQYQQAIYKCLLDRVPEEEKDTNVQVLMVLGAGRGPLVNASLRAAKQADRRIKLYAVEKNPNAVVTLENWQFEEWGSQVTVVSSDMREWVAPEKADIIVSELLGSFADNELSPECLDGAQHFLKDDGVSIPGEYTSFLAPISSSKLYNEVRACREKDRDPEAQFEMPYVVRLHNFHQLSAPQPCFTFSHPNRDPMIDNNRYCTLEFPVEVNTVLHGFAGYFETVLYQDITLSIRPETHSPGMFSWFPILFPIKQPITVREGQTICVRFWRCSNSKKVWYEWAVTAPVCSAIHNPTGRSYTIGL

Sequence of Transcription factor E2F1 (Homo sapiens), Q01094 R113K (Q01094 whole entry R113K): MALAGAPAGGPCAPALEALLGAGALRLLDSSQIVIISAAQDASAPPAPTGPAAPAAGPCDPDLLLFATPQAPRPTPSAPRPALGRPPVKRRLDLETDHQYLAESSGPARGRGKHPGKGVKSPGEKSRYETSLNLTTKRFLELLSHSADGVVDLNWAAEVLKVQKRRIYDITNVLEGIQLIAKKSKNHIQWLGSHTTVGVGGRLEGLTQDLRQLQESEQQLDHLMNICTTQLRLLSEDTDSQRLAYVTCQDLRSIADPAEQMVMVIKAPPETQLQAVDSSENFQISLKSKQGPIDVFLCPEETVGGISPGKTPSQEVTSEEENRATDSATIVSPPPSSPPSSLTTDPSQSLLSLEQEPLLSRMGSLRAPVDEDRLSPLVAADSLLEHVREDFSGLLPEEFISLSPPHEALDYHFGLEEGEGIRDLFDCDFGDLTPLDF
Sequence of Transcription factor E2F1 (Homo sapiens), Q01094 R109K (Q01094 whole entry R109K): as the sequence (Q01094 whole entry R113K) above, with R109K, K113R counted along it
Sequence of Transcription factor E2F1 (Homo sapiens), Q01094 R111K (Q01094 whole entry R111K): as the sequence (Q01094 whole entry R113K) above, with R111K, K113R counted along it

| effect of a mutation on the interaction | Substance |
| --- | --- |
| disrupting interaction | Transcription factor E2F1 (Homo sapiens), Q01094 R109K |
| disrupting interaction | Transcription factor E2F1 (Homo sapiens), Q01094 R113K |
| disrupting interaction | Transcription factor E2F1 (Homo sapiens), Q01094 R111K |
